By EC50 is commonly meant the concentration that produces a half-maximal response. Usually Kd stands for the equilibrium constant for the complex coming apart. Higher therefore signals lower affinity.

Three molecules from patent US20110268740A1 can be followed below.

In assay [1] the target is M2e consensus peptide (free, soluble) (Influenza A virus (consensus of H1, H2 and H3 subtypes of human Influenza A viruses)). The experiment in a line: Friguet ELISA, free M2e peptide in solution.
The target in assay [2] is M2e-short (Influenza A virus (consensus)). The experiment in a line: ELISA, apparent affinity, purified scFv-msFcγ2c on immobilised M2e-short.

In the assay with scFv-E040-msFcγ2c, SLLTEVETPIRNEWGCRCNDSSD (modifications not checked) [M2e consensus peptide (free, soluble)] returned a concentration for a half-maximal effect (EC50) of 21.3 µM.

Consider SLLTEVETPIRNEWGC (modifications not checked) [M2e-short], for which, in the assay with scFv-E040-msFcγ2c, the 50% effective concentration (EC50) amounted to 35.5 µM.

B1: scFv-E040-msFcγ2c (Fc fusion)
chain: DADPAQAAELVMTQSPDSLAVSLGERATINCKSSQSVLYSSNNENYLAWYQQKPGQPPKLLIYWASTRESGVPDRFSGSGSGTDFTLTINSVQAEDVAVYYCQQYFMTPITFGQGTRLEIKGGSSRSSSSGGGGSGGGGEVQLLESGGALVQPGRSLRLSCRTSGLNFGDYPINWVRQAPGKGLEWVGFIKSKSYGVTTEFAASVEGRFTISRDDSRGIAYLQMNSLKTEDTAVYYCTSSSGFLYYFDYWGQGTLVTVSSASTKGPSVTSGQAGRKLEPRVPITQNPCPPLKECPPCAAPDLLGGPSVFIFPPKIKDVLMISLSPMVTCVVVDVSEDDPDVQISWFVNNVEVHTAQTQTHREDYNSTLRVVSALPIQHQDWMSGKEFKCKVNNRALPSPIEKTISKPRGPVRAPQVYVLPPPAEEMTKKEFSLTCMITGFLPAEIAVDWTSNGRTEQNYKNTATVLDSDGSYFMYSKLRVQKSTWERGSLFACSVVHEGLHNHLTTKTISRSLGK
Molecule B1 yielded a dissociation constant Kd in assay [1] of 0.004 µM. Also, the EC50 in assay [2] is 0.0902 nM.
